Source: paper PMC9597381, “Molecular determinants of TRAF6 binding specificity suggest that native interaction partners are not optimized for affinity” (Protein Science : A Publication of the Protein Society, 2022)
“And” between values parts separate entries of the source, which are not always exact repeats. Identical values can stand only once.

T1: monomeric TRAF6 (T6m), TRAF6 MATH domain (Homo sapiens, UniProt Q9Y4K3)
T1 construct: (human TRAF6 residues 350-501) – LE – HHHHHH; made in house; host or cells: E. coli Rosetta2(DE3)
T1 sequence (Q9Y4K3 350-501): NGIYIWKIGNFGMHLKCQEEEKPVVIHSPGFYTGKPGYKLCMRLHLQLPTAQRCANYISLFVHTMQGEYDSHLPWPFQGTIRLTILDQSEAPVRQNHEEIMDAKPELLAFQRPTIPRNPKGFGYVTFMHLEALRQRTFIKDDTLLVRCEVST

T2: TRAF6 trimeric construct T6cc (coiled-coil and MATH domains) (human, UniProt Q9Y4K3 310-504, biotin on the BAP tag)
T2 chain: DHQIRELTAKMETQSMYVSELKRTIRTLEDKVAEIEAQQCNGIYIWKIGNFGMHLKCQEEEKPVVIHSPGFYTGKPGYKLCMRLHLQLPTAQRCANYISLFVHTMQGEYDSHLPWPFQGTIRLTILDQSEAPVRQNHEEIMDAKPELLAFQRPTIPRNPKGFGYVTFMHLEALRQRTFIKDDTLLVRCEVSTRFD

T3: TRAF6 trimeric construct T6cc (coiled-coil and MATH domains) (human, UniProt Q9Y4K3 310-504, biotin on the BAP tag)
T3 construct: human TRAF6, residues 310-504, including the coiled-coil trimerization domain and the MATH domain; Expressed from a pDW363 vector; Concentrations of T6cc are reported as monomer concentrations; also called trimeric TRAF6; biotinylated TRAF6 homotrimers; source: E. coli BL21(DE3), co-expressed with BirA, purified (Ni-NTA, gel filtration); not shown: BAP tag, N-terminal, kept
T3 sequence (looked up): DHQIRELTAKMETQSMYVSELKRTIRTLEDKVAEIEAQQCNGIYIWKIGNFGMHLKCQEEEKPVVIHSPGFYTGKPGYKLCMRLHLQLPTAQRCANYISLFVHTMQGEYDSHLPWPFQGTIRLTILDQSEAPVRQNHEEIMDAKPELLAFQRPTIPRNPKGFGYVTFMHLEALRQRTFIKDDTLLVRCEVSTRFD


Key:
TRAF6 = conditions: reported affinity for TRAF6, ITC; read-out: Kd by isothermal titration calorimetry; cited from earlier work
Text: High‐affinity TRAF6 binders isolated in this work can serve as lead peptides for inhibitor development. TRAF6 signaling is implicated in inflammation and cardiovascular disease.[12], [13], [18] Targeting TRAF6 MATH is reported to improve insulin sensitivity in obese mice, improve heart function in mouse models of non‐ischemic cardiac failure, reduce atherosclerosis, and inhibit osteoclastogenesis and bone resorption.[14], [15], [16], [17] A RANK peptide attached to a protein transduction sequence to promote cell entry is currently sold commercially as a TRAF6 inhibitor (e.g., Novus Biologicals ...

[1] = molecular target: T1, monomeric TRAF6 (T6m), TRAF6 MATH domain; assay: Biolayer interferometry (BLI), SUMO-peptide on tip, TRAF6 monomer in solution; conditions: biotinylated SUMO-peptide on streptavidin tip, T6m in solution up to 150 μM; 20 mM Tris pH 8.0, 207 mM NaCl; room temperature; steady-state fit; average of 3 replicate binding curves ± SEM
Text: To further validate the cell‐surface interactions identified in the screen, we measured TRAF6‐peptide binding by biolayer interferometry (BLI), using purified monomeric TRAF6 MATH domain (construct termed T6m) in solution and purified peptides attached to the sensor tip (see Table S1 for construct details). […] The BLI data validate the cell‐surface display results and support the conclusion that top hits from the screen bind with higher affinity than CD40*, which is one of the tightest known TRAF6 peptide binders[19] (Figure 3). Based on these observations, we conclude that despite the screening assay being performed in the environment of the cell surface, and in a multi‐valent context, enrichment sorting returned high‐affinity binders.
Vectors, bacterial cells, and cloning: The expression constructs and cell surface display constructs are detailed in Table S1. The TRAF6 trimeric construct, here termed T6cc, consisted of residues 310–504 of human TRAF6 (including the MATH domain and coiled‐coil trimerization domain), an N‐terminal BAP tag for biotinylation, and a hexahistidine tag for purification. The construct was expressed using a pDW363 vector to ensure biotinylation. A monomeric TRAF6 construct lacking the trimerization domain and BAP tag, here termed T6m, consisted of residues 350–501 of human TRAF6 and a hexahistidine tag. The construct was expressed in a pDW363 vector, although the lack of a BAP tag ensured no biotinylation of this protein. SUMO‐peptide fusion constructs contained a BAP tag, hexahistidine tag, and SUMO tag. The construct was expressed in a pDW363 vector to ensure biotinylation. E. coli strains BL21(DE3), DH5α, and MC1061 were used for protein expression, cloning, and surface display, respectively. For bacterial surface display of TRAF6‐binding peptides, the eCPX vector designed by the Daugherty group[56] was modified at the C‐terminus to append a FLAG sequence, a linker containing a SfiI site, and the CD40* peptide sequence, which included 9 residues resolved in the X‐ray structure of CD40* bound to TRAF6 (PDB ID: 1LB6[19]) plus 8 flanking residues on each side of this core region. The CD40*‐derived sequence used was […].
Protein purification and preparation: T6cc was co‐expressed with the biotin ligase BirA (from the pDW363 vector) in BL21(DE3) E. coli for 5 hours at 37°C. Media was supplemented with 0.05 mM D‐(+)‐biotin. The protein was then purified using Ni^2+‐NTA affinity chromatography followed by gel‐filtration chromatography into a final buffer of 20 mM Tris pH 8.0, 150 mM NaCl, 5% glycerol, 1 mM DTT. Purified protein was concentrated before storing at −80°C in aliquots for later use. Concentrations of T6cc are reported as monomer concentrations. […]

[2] = molecular target: RANK peptide (Homo sapiens); assay: ITC; conditions: cited from earlier work
[3] = molecular target: T2, TRAF6 trimeric construct T6cc …; assay: FACS; apparent Kd*, cell-surface display
[4] = molecular target: T2, TRAF6 trimeric construct T6cc …; assay: FACS
[5] = molecular target: biotinylated SUMO-peptide fusion of …; assay: BLI; biotinylated SUMO-peptides immobilised on streptavidin tips, T6m in solution; room temperature; 20 mM Tris pH 8.0, 207 mM NaCl, 1 mM DTT, 1% glycerol, 0.1% BSA, 0.1% Tween-20; steady-state fit, SUMO-only control subtracted
[6] = molecular target: biotinylated SUMO-peptide fusion of CD40* (…) (human); assay: as above
[7] = molecular target: T3, TRAF6 trimeric construct T6cc …; assay: flow cytometry on cells; single-clone titration: biotinylated T6cc (0 nM to 3 uM, eight concentrations) on peptide-displaying E. coli, 4°C 60 min in PBS + BSA, detected with streptavidin-PE; apparent cell-surface constant Kd*, multivalent, not likely at equilibrium; conditions: one partner purified
[8] = molecular target: … peptide displayed on E. coli via eCPX (human); assay: as above

Sequence of TRAF6 (from UniProt Q9Y4K3) (Q9Y4K3 whole entry): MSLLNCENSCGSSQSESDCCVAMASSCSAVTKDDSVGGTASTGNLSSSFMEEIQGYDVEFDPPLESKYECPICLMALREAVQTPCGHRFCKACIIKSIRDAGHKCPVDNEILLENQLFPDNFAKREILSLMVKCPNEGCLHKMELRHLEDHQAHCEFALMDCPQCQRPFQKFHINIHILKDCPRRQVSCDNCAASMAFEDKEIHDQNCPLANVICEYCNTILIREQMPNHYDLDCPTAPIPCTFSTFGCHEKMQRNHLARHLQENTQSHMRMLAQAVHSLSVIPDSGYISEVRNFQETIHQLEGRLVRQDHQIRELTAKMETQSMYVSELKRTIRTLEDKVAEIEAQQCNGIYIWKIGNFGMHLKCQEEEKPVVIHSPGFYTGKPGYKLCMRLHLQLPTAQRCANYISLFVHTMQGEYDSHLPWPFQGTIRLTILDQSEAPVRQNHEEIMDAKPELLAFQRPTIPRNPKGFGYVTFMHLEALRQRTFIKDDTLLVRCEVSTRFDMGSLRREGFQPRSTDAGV

Row | Kd [3] [nM] | Kd [4] [nM] | Molecule | also measured
1 | – | – | KQEPQEIDF [CD40*, reference compound] | Kd (TRAF6): 84000 nM; Kd [1]: 240000 ± 23000 nM
2 | – | – | RNVPEESDW | Kd [1]: 24000 ± 3800 nM
3 | – | – | TRAF6 (from UniProt Q9Y4K3) | Kd [2]: 78000 nM
4 | – | – | TNWPEENDW | Kd [1]: 37200 nM
5 | – | – | LNLPEESDW | Kd [1]: 27500 nM
6 | 45.2 | 45.2 | QNLPTESDW | –
7 | 186 | 186 | HNIPTETSW | –
8 | – | – | TRAF6 monomeric MATH domain construct T6m (domain or fragment) NGIYIWKIGNFGMHLKCQEEEKPVVIHSPGFYTGKPGYKLCMRLHLQLPTAQRCANYISLFVHTMQGEYDSHLPWPFQGTIRLTILDQSEAPVRQNHEEIMDAKPELLAFQRPTIPRNPKGFGYVTFMHLEALRQRTFIKDDTLLVRCEVST | Kd [5]: 37000 nM and 28000 nM and 24000 nM; Kd [6]: 240000 nM
9 | – | – | PTNKAPHPKQEPQEIDFPDDLPGSNT (9 residues resolved in PDB 1LB6 plus 8 flanking residues on each side; also called KQEPQEIDF (CD40*); not shown: eCPX (re-engineered OmpX), N-terminal, kept; FLAG, N-terminal, kept) [CD40* peptide (KQEPQEIDF with 8 flanking CD40 residues on each side) displayed on E. coli via eCPX] | Kd [7]: 1200 nM
10 | 581 | 581 | TYGPVENSW | –
11 | 374 | 374 | PQDPVETFW | –
12 | – | – | TRAF6 trimeric construct T6cc (coiled-coil and MATH domains) (domain or fragment, biotin on the BAP tag) DHQIRELTAKMETQSMYVSELKRTIRTLEDKVAEIEAQQCNGIYIWKIGNFGMHLKCQEEEKPVVIHSPGFYTGKPGYKLCMRLHLQLPTAQRCANYISLFVHTMQGEYDSHLPWPFQGTIRLTILDQSEAPVRQNHEEIMDAKPELLAFQRPTIPRNPKGFGYVTFMHLEALRQRTFIKDDTLLVRCEVSTRFD | Kd [8]: 84 nM and 46 nM and 31 nM
13 | 240 | 240 | GKYPEENDW | –
14 | 110 | 110 | MNAPVESDW | –
15 | 58.3 | 58.3 | RNWPTETDW | –
16 | 169 | 169 | TRMPVESDW | –
17 | 260 | 260 | RNVPEEIYW | –
18 | 332 | 332 | SPVPEESTW | –
19 | 498 | 498 | LQLPEENDW | –
